Results as given in patent US20210139548A1 (published 2021).
Values belong to the binder of their own block, whether it stands above or below them. *1 amine or outer side, *2 acyl side, *3 side chain or, on linkers, in order; H or OH if unused. Side-chain parts run from the residue outwards. The star is where a group is joined. C18 diacid = O=C(O)CCCCCCCCCCCCCCCCC(=O)*; γGlu = O=C(O)[C@H](CCC(=O)[*:2])N[*:1]; Isovaleryl = CC(C)CC(=O)*; AEEA = NCCOCCOCC(=O)O

Biological target: T1, human neuropeptide Y2 receptor (human, UniProt P49146 1-381)
T1 construct: whole, on cells; also called hNPY2 receptor; hNPY2-R
T1 sequence (looked up): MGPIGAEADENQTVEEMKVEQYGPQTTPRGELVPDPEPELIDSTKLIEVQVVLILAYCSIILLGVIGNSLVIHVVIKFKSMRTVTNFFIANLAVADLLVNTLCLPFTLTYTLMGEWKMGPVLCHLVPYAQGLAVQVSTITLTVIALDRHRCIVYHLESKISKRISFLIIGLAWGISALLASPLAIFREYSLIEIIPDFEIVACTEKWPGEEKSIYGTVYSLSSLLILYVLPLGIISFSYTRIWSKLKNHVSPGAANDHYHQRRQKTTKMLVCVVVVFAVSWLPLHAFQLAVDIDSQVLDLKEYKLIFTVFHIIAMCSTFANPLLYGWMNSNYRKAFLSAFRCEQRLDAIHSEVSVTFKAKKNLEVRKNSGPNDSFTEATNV
Assay: radioligand competition (125I-PYY(1-36)), hNPY2R membranes
How it was run: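 Commercial human Y2 receptor membranes (0.5 μg protein/well) were incubated with peptide for 2 h at room temperature in 50 mM HEPES, 5 mM MgCl₂, 1 mM CaCl₂, pH 7.4, with 0.2% ovalbumin. Bound radioligand was separated on PEI-soaked GF/C filters and counted by scintillation, and IC₅₀ came from nonlinear sigmoidal regression.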

Ki: 3.83 nM
B2: Compound 139 (peptide)
peptide: Isovaleryl-APEK([AEEA-AEEA-γGlu-C18 diacid])PEEESSPEELQRYYVSLRHYYNWLTRQRY-NH2
SMILES: CC(C)CC(=O)N[C@@H](C)C(=O)N1CCC[C@H]1C(=O)N[C@@H](CCC(=O)O)C(=O)N[C@@H](CCCCNC(=O)COCCOCCNC(=O)COCCOCCNC(=O)CC[C@H](NC(=O)CCCCCCCCCCCCCCCCC(=O)O)C(=O)O)C(=O)N1CCC[C@H]1C(=O)N[C@@H](CCC(=O)O)C(=O)N[C@@H](CCC(=O)O)C(=O)N[C@@H](CCC(=O)O)C(=O)N[C@@H](CO)C(=O)N[C@@H](CO)C(=O)N1CCC[C@H]1C(=O)N[C@@H](CCC(=O)O)C(=O)N[C@@H](CCC(=O)O)C(=O)N[C@@H](CC(C)C)C(=O)N[C@@H](CCC(N)=O)C(=O)N[C@@H](CCCNC(=N)N)C(=O)N[C@@H](Cc1ccc(O)cc1)C(=O)N[C@@H](Cc1ccc(O)cc1)C(=O)N[C@H](C(=O)N[C@@H](CO)C(=O)N[C@@H](CC(C)C)C(=O)N[C@@H](CCCNC(=N)N)C(=O)N[C@@H](Cc1c[nH]cn1)C(=O)N[C@@H](Cc1ccc(O)cc1)C(=O)N[C@@H](Cc1ccc(O)cc1)C(=O)N[C@@H](CC(N)=O)C(=O)N[C@@H](Cc1c[nH]c2ccccc12)C(=O)N[C@@H](CC(C)C)C(=O)N[C@H](C(=O)N[C@@H](CCCNC(=N)N)C(=O)N[C@@H](CCC(N)=O)C(=O)N[C@@H](CCCNC(=N)N)C(=O)N[C@@H](Cc1ccc(O)cc1)C(N)=O)[C@@H](C)O)C(C)C

Ki: 3.12 nM
B3: Compound 141 (peptide)
peptide: Isovaleryl-APEK([AEEA-AEEA-γGlu-C18 diacid])PEEAASPEELQRYYVSARHYYNWLTRQRY-NH2
SMILES: CC(C)CC(=O)N[C@@H](C)C(=O)N1CCC[C@H]1C(=O)N[C@@H](CCC(=O)O)C(=O)N[C@@H](CCCCNC(=O)COCCOCCNC(=O)COCCOCCNC(=O)CC[C@H](NC(=O)CCCCCCCCCCCCCCCCC(=O)O)C(=O)O)C(=O)N1CCC[C@H]1C(=O)N[C@@H](CCC(=O)O)C(=O)N[C@@H](CCC(=O)O)C(=O)N[C@@H](C)C(=O)N[C@@H](C)C(=O)N[C@@H](CO)C(=O)N1CCC[C@H]1C(=O)N[C@@H](CCC(=O)O)C(=O)N[C@@H](CCC(=O)O)C(=O)N[C@@H](CC(C)C)C(=O)N[C@@H](CCC(N)=O)C(=O)N[C@@H](CCCNC(=N)N)C(=O)N[C@@H](Cc1ccc(O)cc1)C(=O)N[C@@H](Cc1ccc(O)cc1)C(=O)N[C@H](C(=O)N[C@@H](CO)C(=O)N[C@@H](C)C(=O)N[C@@H](CCCNC(=N)N)C(=O)N[C@@H](Cc1c[nH]cn1)C(=O)N[C@@H](Cc1ccc(O)cc1)C(=O)N[C@@H](Cc1ccc(O)cc1)C(=O)N[C@@H](CC(N)=O)C(=O)N[C@@H](Cc1c[nH]c2ccccc12)C(=O)N[C@@H](CC(C)C)C(=O)N[C@H](C(=O)N[C@@H](CCCNC(=N)N)C(=O)N[C@@H](CCC(N)=O)C(=O)N[C@@H](CCCNC(=N)N)C(=O)N[C@@H](Cc1ccc(O)cc1)C(N)=O)[C@@H](C)O)C(C)C

Ki: 1.42 nM
B4: Compound 138 (peptide)
peptide: Isovaleryl-APAK([AEEA-AEEA-γGlu-C18 diacid])PEEDASPEELQQYYVSLRHYYNWLTRQRY-NH2
SMILES: CC(C)CC(=O)N[C@@H](C)C(=O)N1CCC[C@H]1C(=O)N[C@@H](C)C(=O)N[C@@H](CCCCNC(=O)COCCOCCNC(=O)COCCOCCNC(=O)CC[C@H](NC(=O)CCCCCCCCCCCCCCCCC(=O)O)C(=O)O)C(=O)N1CCC[C@H]1C(=O)N[C@@H](CCC(=O)O)C(=O)N[C@@H](CCC(=O)O)C(=O)N[C@@H](CC(=O)O)C(=O)N[C@@H](C)C(=O)N[C@@H](CO)C(=O)N1CCC[C@H]1C(=O)N[C@@H](CCC(=O)O)C(=O)N[C@@H](CCC(=O)O)C(=O)N[C@@H](CC(C)C)C(=O)N[C@@H](CCC(N)=O)C(=O)N[C@@H](CCC(N)=O)C(=O)N[C@@H](Cc1ccc(O)cc1)C(=O)N[C@@H](Cc1ccc(O)cc1)C(=O)N[C@H](C(=O)N[C@@H](CO)C(=O)N[C@@H](CC(C)C)C(=O)N[C@@H](CCCNC(=N)N)C(=O)N[C@@H](Cc1c[nH]cn1)C(=O)N[C@@H](Cc1ccc(O)cc1)C(=O)N[C@@H](Cc1ccc(O)cc1)C(=O)N[C@@H](CC(N)=O)C(=O)N[C@@H](Cc1c[nH]c2ccccc12)C(=O)N[C@@H](CC(C)C)C(=O)N[C@H](C(=O)N[C@@H](CCCNC(=N)N)C(=O)N[C@@H](CCC(N)=O)C(=O)N[C@@H](CCCNC(=N)N)C(=O)N[C@@H](Cc1ccc(O)cc1)C(N)=O)[C@@H](C)O)C(C)C

The remaining lines, values behind:

B1: Compound 134 (peptide)
peptide: Isovaleryl-APEK([AEEA-AEEA-γGlu-C18 diacid])PEEDASPEEIQRYYTELRHYYNWLTRQRY-NH2
SMILES: CC[C@H](C)[C@H](NC(=O)[C@H](CCC(=O)O)NC(=O)[C@H](CCC(=O)O)NC(=O)[C@@H]1CCCN1C(=O)[C@H](CO)NC(=O)[C@H](C)NC(=O)[C@H](CC(=O)O)NC(=O)[C@H](CCC(=O)O)NC(=O)[C@H](CCC(=O)O)NC(=O)[C@@H]1CCCN1C(=O)[C@H](CCCCNC(=O)COCCOCCNC(=O)COCCOCCNC(=O)CC[C@H](NC(=O)CCCCCCCCCCCCCCCCC(=O)O)C(=O)O)NC(=O)[C@H](CCC(=O)O)NC(=O)[C@@H]1CCCN1C(=O)[C@H](C)NC(=O)CC(C)C)C(=O)N[C@@H](CCC(N)=O)C(=O)N[C@@H](CCCNC(=N)N)C(=O)N[C@@H](Cc1ccc(O)cc1)C(=O)N[C@@H](Cc1ccc(O)cc1)C(=O)N[C@H](C(=O)N[C@@H](CCC(=O)O)C(=O)N[C@@H](CC(C)C)C(=O)N[C@@H](CCCNC(=N)N)C(=O)N[C@@H](Cc1c[nH]cn1)C(=O)N[C@@H](Cc1ccc(O)cc1)C(=O)N[C@@H](Cc1ccc(O)cc1)C(=O)N[C@@H](CC(N)=O)C(=O)N[C@@H](Cc1c[nH]c2ccccc12)C(=O)N[C@@H](CC(C)C)C(=O)N[C@H](C(=O)N[C@@H](CCCNC(=N)N)C(=O)N[C@@H](CCC(N)=O)C(=O)N[C@@H](CCCNC(=N)N)C(=O)N[C@@H](Cc1ccc(O)cc1)C(N)=O)[C@@H](C)O)[C@@H](C)O
Ki: 1.17 nM

B5: Compound 135 (peptide)
peptide: Isovaleryl-APEK([AEEA-AEEA-γGlu-C18 diacid])PEADASPEELQRYYVELRHYYNWLTRQRY-NH2
SMILES: CC(C)CC(=O)N[C@@H](C)C(=O)N1CCC[C@H]1C(=O)N[C@@H](CCC(=O)O)C(=O)N[C@@H](CCCCNC(=O)COCCOCCNC(=O)COCCOCCNC(=O)CC[C@H](NC(=O)CCCCCCCCCCCCCCCCC(=O)O)C(=O)O)C(=O)N1CCC[C@H]1C(=O)N[C@@H](CCC(=O)O)C(=O)N[C@@H](C)C(=O)N[C@@H](CC(=O)O)C(=O)N[C@@H](C)C(=O)N[C@@H](CO)C(=O)N1CCC[C@H]1C(=O)N[C@@H](CCC(=O)O)C(=O)N[C@@H](CCC(=O)O)C(=O)N[C@@H](CC(C)C)C(=O)N[C@@H](CCC(N)=O)C(=O)N[C@@H](CCCNC(=N)N)C(=O)N[C@@H](Cc1ccc(O)cc1)C(=O)N[C@@H](Cc1ccc(O)cc1)C(=O)N[C@H](C(=O)N[C@@H](CCC(=O)O)C(=O)N[C@@H](CC(C)C)C(=O)N[C@@H](CCCNC(=N)N)C(=O)N[C@@H](Cc1c[nH]cn1)C(=O)N[C@@H](Cc1ccc(O)cc1)C(=O)N[C@@H](Cc1ccc(O)cc1)C(=O)N[C@@H](CC(N)=O)C(=O)N[C@@H](Cc1c[nH]c2ccccc12)C(=O)N[C@@H](CC(C)C)C(=O)N[C@H](C(=O)N[C@@H](CCCNC(=N)N)C(=O)N[C@@H](CCC(N)=O)C(=O)N[C@@H](CCCNC(=N)N)C(=O)N[C@@H](Cc1ccc(O)cc1)C(N)=O)[C@@H](C)O)C(C)C
Ki: 1.31 nM

B6: Compound 136 (peptide)
peptide: Isovaleryl-APEK([AEEA-AEEA-γGlu-C18 diacid])PEADSSPEELQRYYVSLRHYYNWLTRQRY-NH2
SMILES: CC(C)CC(=O)N[C@@H](C)C(=O)N1CCC[C@H]1C(=O)N[C@@H](CCC(=O)O)C(=O)N[C@@H](CCCCNC(=O)COCCOCCNC(=O)COCCOCCNC(=O)CC[C@H](NC(=O)CCCCCCCCCCCCCCCCC(=O)O)C(=O)O)C(=O)N1CCC[C@H]1C(=O)N[C@@H](CCC(=O)O)C(=O)N[C@@H](C)C(=O)N[C@@H](CC(=O)O)C(=O)N[C@@H](CO)C(=O)N[C@@H](CO)C(=O)N1CCC[C@H]1C(=O)N[C@@H](CCC(=O)O)C(=O)N[C@@H](CCC(=O)O)C(=O)N[C@@H](CC(C)C)C(=O)N[C@@H](CCC(N)=O)C(=O)N[C@@H](CCCNC(=N)N)C(=O)N[C@@H](Cc1ccc(O)cc1)C(=O)N[C@@H](Cc1ccc(O)cc1)C(=O)N[C@H](C(=O)N[C@@H](CO)C(=O)N[C@@H](CC(C)C)C(=O)N[C@@H](CCCNC(=N)N)C(=O)N[C@@H](Cc1c[nH]cn1)C(=O)N[C@@H](Cc1ccc(O)cc1)C(=O)N[C@@H](Cc1ccc(O)cc1)C(=O)N[C@@H](CC(N)=O)C(=O)N[C@@H](Cc1c[nH]c2ccccc12)C(=O)N[C@@H](CC(C)C)C(=O)N[C@H](C(=O)N[C@@H](CCCNC(=N)N)C(=O)N[C@@H](CCC(N)=O)C(=O)N[C@@H](CCCNC(=N)N)C(=O)N[C@@H](Cc1ccc(O)cc1)C(N)=O)[C@@H](C)O)C(C)C
Ki: 0.89 nM
